{"source": "patent US12286461B2", "about": "“Recombinant fused polypeptide and use thereof” (priority 2019, dated 2025)", "molecules": {"B1": {"name": "Acetyl-SDKPGGGGTSLDASIIWAMMQNGGGGLSKLAEAAAKEAAAKEAAAKEAAAKKPRCWRGEGGGGIVRRADRAAVPGGGGRGD (protein)", "chain": "SDKPGGGGTSLDASIIWAMMQNGGGGLSKLAEAAAKEAAAKEAAAKEAAAKKPRCWRGEGGGGIVRRADRAAVPGGGGRGD", "modifications": "N-acetyl", "notes": "Recombinant fused polypeptide Y-linker2-X expressed in 293 cells"}}, "key": {"[1]": {"test_system": "SD rats with bleomycin-induced pulmonary fibrosis", "assay": "Bleomycin-induced pulmonary fibrosis animal model", "assay_type": "in vivo", "settings": "for content of TGF-β1 in serum, difference from the model group: fused polypeptides 10 mg/kg s.c. once every five days, nintedanib 25 mg/kg intragastric once a day", "procedure": "SD rats were anesthetized by intraperitoneal injection of 4% chloral hydrate with a concentration of 1 mL/100 g. After anesthesia, the rats were fixed and their necks were disinfected by using cotton with 75% alcohol. The skin of the rat neck was longitudinally cut with scissors, and the fascia and muscle were longitudinally bluntly torn with tweezers to expose the trachea. A syringe was inserted into the trachea to inject 5 mg/kg bleomycin, while a blank group was injected with an equal amount of normal saline. Then a rat plate was quickly erected and rotated, the rats' breathing was observed, the neck wound was sterilized after rotation and was sewn, and an amoxicillin anti-inflammatory drug was sprinkled on the suture. After the operation, the rats were put back into a dry and clean cage for resting, waiting for awakening. The rats were awakened after about 1-2 hours, and then fed normally. On the 7th day after modeling, modeling group animals randomly fell into a model group, a Nintedanib positive drug group, recombinant fused polypeptide 1, 2, 3 and 4 dosage groups, and a normal control group, and the groups were administered separately for an administration cycle of 15 days. Living situations of rats were observed every day and their weights were weighed. After administration for 15 days, the eyeballs were removed and blood was taken, the rats were dissected, and lungs were taken. The content of TGF-β1 in serum and the content of HYP in lung tissues were detected."}, "[2]": {"test_system": "SD rats with CCl4-induced hepatic fibrosis", "assay": "CCl4-induced hepatic fibrosis animal model", "assay_type": "in vivo", "settings": "40% CCl4 i.p. twice a week for 8 weeks, fused polypeptides 6 mg/kg s.c. once every five days", "procedure": "Modeling was performed on the rats. Each group other than the blank group was injected with 40% CCl4 intraperitoneally twice a week, the first injection was performed at 3 mL/kg, and then injection was performed at 2 mL/kg. Modeling was performed for 8 weeks to induce hepatic fibrosis. After the intraperitoneal injection of CCl4 for the fourth time, the drugs were administered according to Table 3. After induction for 8 weeks, the administration was stopped. The SD rats were dissected the next day, and blood was taken. The liver tissue was stored in a refrigerator at −80° C. for further use. The expression of HYP in the hepatic tissue of rats was detected. [table]"}, "[3]": {"test_system": "SD rats with renal fibrosis", "assay": "Renal fibrosis animal model (ureter ligation)", "assay_type": "in vivo", "settings": "6 mg/kg s.c. once every five days, after 15 days", "procedure": "A renal fibrosis animal model was established. SD rats were anesthetized with 4% chloral hydrate, injected with 1 mL/100 g intraperitoneally, fixed to an operation board, and sterilized in an operation area for further use. […] Muscular layers and abdominal walls were sewed layer by layer, the suture was disinfected with alcohol. After SD rats woke up, the rats were put into a cage for feeding. In the blank group, ureter was not ligated, and other steps were the same.\nThen, the animals fell into a blank group, a model group, and recombinant fused polypeptide administration groups, and the administration was started on the second day after the operation, and was performed for 15 days. After administration for 15 days, blood was taken and supernatant was taken to detect the content of TGF-β1 in serum."}, "[4]": {"test_system": "mice with myocardial fibrosis", "assay": "Isoprenaline-induced myocardial fibrosis animal model", "assay_type": "in vivo", "settings": "BALB/c mice, isoprenaline 5 mg/kg s.c. daily for 7 days, 12 mg/kg s.c. (Table 5), after the 8th day, FIG. 5", "procedure": "In the model group, the experimental mice were injected with isoprenaline (ISO) (5 mg/kg) subcutaneously on the back of the mice every day for 7 consecutive days, and the mice were injected with normal saline subcutaneously (200 μL/mouse) every day. In the blank group, normal saline was injected subcutaneously (200 μL/mouse) every day. […] After the 8th day, blood was taken and was centrifuged, the supernatant was taken, and the content of TGF-β1 in serum was detected."}, "[5]": {"test_system": "mice with bleomycin-induced skin fibrosis", "assay": "Bleomycin-induced skin fibrosis model", "assay_type": "in vivo, C57/BL black mice", "settings": "C57/BL mice, bleomycin 10 μg/mL s.c. daily for 28 days, 10 mg/kg s.c. once every five days, 6 times, FIG. 6", "procedure": "Bleomycin (10 μg/mL) was injected subcutaneously every day for 28 days to form skin fibrosis. During the modeling period, the administration groups were given drugs for treatment. After modeling, the mice were killed on the next day, and the skin tissue of the mouse back was taken to detect the content of HYP in the skin tissue. [table]"}, "Streptococcus pneumoniae": {"test_system": "Streptococcus pneumoniae", "assay": "Mouse pneumonia model, bacterial pneumonia", "assay_type": "in vivo", "settings": "BALB/C mouse pneumonia model, nasal drip; average ± standard deviation", "source_text": "(§1) A mouse pneumonia model was successfully established by using a nasal drip method. BALB/C mice with a body weight of 18-24 g were selected, and then anesthetized with ether on day 0, day 1 and day 2, respectively, prepared Streptococcus pneumoniae bacteria solution, adenovirus concentrated solution, Mycoplasma pneumoniae, Chlamydia pneumoniae, protozoa and pneumonia fungi were slowly dropped into the nasal cavity of the mice, so that the bacteria solutions entered the trachea and bronchi, and the bacteria solutions were prevented from flowing into the esophagus during the operation to avoid inactivation of the bacteria solutions, so that the mouse pneumonia model was established. After the model was successfully established, the recombinant fused polypeptides according to the present invention were administered."}, "adenovirus": {"test_system": "adenovirus", "assay": "Mouse pneumonia model, viral pneumonia", "assay_type": "in vivo", "settings": "BALB/C mouse pneumonia model, nasal drip; average ± standard deviation", "source_text": "as §1"}, "Mycoplasma pneumoniae": {"test_system": "Mycoplasma pneumoniae", "assay": "Mouse pneumonia model, mycoplasma pneumonia", "assay_type": "in vivo", "settings": "BALB/C mouse pneumonia model, nasal drip; average ± standard deviation", "source_text": "as §1"}, "Chlamydia pneumoniae": {"test_system": "Chlamydia pneumoniae", "assay": "Mouse pneumonia model, chlamydia pneumonia", "assay_type": "in vivo", "settings": "BALB/C mouse pneumonia model, nasal drip; average ± standard deviation", "source_text": "as §1"}, "protozoa": {"test_system": "protozoa", "assay": "Mouse pneumonia model, protozoal pneumonia", "assay_type": "in vivo", "settings": "BALB/C mouse pneumonia model, nasal drip; average ± standard deviation", "source_text": "as §1"}, "pneumonia fungi": {"test_system": "pneumonia fungi", "assay": "Mouse pneumonia model, fungal pneumonia", "assay_type": "in vivo", "settings": "BALB/C mouse pneumonia model, nasal drip; average ± standard deviation", "source_text": "as §1"}, "pulmonary infections": {"test_system": "pulmonary infections", "assay": "Mouse pneumonia model, pneumonia caused by pulmonary infections", "assay_type": "in vivo, BALB/C mice", "settings": "BALB/C mouse pneumonia model, nasal drip, average ± standard deviation", "source_text": "as §1"}, "[6]": {"settings": "listed as recombinant fused polypeptide IV"}}, "data": [{"molecule": "B1", "values": [{"measurement": "Survival rate (%)", "setting": "[1]; bleomycin 5 mg/kg intratracheal, dosage 10 mg/kg (Table 2), administration cycle 15 days from day 7 after modeling", "value": 92.9, "unit": "%"}, {"measurement": "hydroxyproline (HYP) content in lung tissue", "setting": "[1]; bleomycin pulmonary fibrosis, 10 mg/kg s.c. once every five days, after 15 days, FIG. 1", "value": "can lower the hydroxyproline content"}, {"measurement": "content of TGF-β1 in serum, difference from the model group", "setting": "[1]; bleomycin pulmonary fibrosis, after 15 days, FIG. 2, listed as recombinant fused polypeptide 4", "value": "significantly different from the model group (*P<0.05)"}, {"measurement": "content of TGF-β1 in serum, difference from the model group", "setting": "[1]; bleomycin pulmonary fibrosis, after 15 days, FIG. 2, listed as recombinant fused polypeptide IV", "value": "can lower the TGF-β1 content"}, {"measurement": "content of HYP in liver tissue, difference from the model group", "setting": "[2]; FIG. 3, listed as Recombinant fused polypeptide 4", "value": "highly significantly different from the model group (***P<0.001)"}, {"measurement": "content of HYP in liver tissue, difference from the model group", "setting": "[2]; FIG. 3, listed as recombinant fused polypeptide IV", "value": "can lower the HYP content"}, {"measurement": "content of TGF-β1 in serum, difference from the model group", "setting": "[3]; FIG. 4, listed as recombinant fused polypeptide 4, 6 mg/kg", "value": "highly significantly different from the model group (***P<0.001)"}, {"measurement": "content of TGF-β1 in serum, difference from the model group", "setting": "[3]; FIG. 4, listed as recombinant fused polypeptide IV, 6 mg/kg", "value": "can lower the TGF-β1 content"}, {"measurement": "content of TGF-β1 in serum, difference from the model group", "setting": "[4]; listed as recombinant fused polypeptide 4", "value": "significantly different from the model group (**P<0.01)"}, {"measurement": "content of TGF-β1 in serum, difference from the model group", "setting": "[4]; [6]", "value": "can lower the TGF-β1 content"}, {"measurement": "content of HYP in skin tissue, difference from the model group", "setting": "[5]; listed as recombinant fused polypeptide 4, 10 mg/kg", "value": "highly significantly different from the model group (***P<0.001)"}, {"measurement": "content of HYP in skin tissue, difference from the model group", "setting": "[5]; listed as recombinant fused polypeptide IV, 10 mg/kg", "value": "can lower the hydroxyproline content"}, {"measurement": "Inhibitory effect, Bacterial pneumonia", "setting": "Streptococcus pneumoniae", "value": "48.61 ± 6.54"}, {"measurement": "Inhibitory effect, Viral pneumonia", "setting": "adenovirus", "value": "78.12 ± 8.27"}, {"measurement": "Inhibitory effect, Mycoplasma pneumonia", "setting": "Mycoplasma pneumoniae", "value": "47.30 ± 5.30"}, {"measurement": "Inhibitory effect, Chlamydia pneumonia", "setting": "Chlamydia pneumoniae", "value": "55.26 ± 6.12"}, {"measurement": "Inhibitory effect, Protozoal pneumonia", "setting": "protozoa", "value": "63.45 ± 4.68"}, {"measurement": "Inhibitory effect, Fungal pneumonia", "setting": "pneumonia fungi", "value": "54.12 ± 5.12"}, {"measurement": "Inhibitory effect, Pneumonia caused by pulmonary infections", "setting": "pulmonary infections", "value": "56.93 ± 5.28"}, {"measurement": "Inhibitory effect, Pneumonia caused by pulmonary infections", "setting": "pulmonary infections; [6]", "value": "inhibitory effect"}]}]}
